Reference: paper PMC11347734, “Ultrasensitive Quantification of MUC16 Antigen/Amine-Terminated Aptamer Interaction by Surface Plasmon Resonance: Kinetic and Thermodynamic Studies”

What was measured:
Settings in all cases: protein: commercial
MUC16 antigen (CA125) [1] = target: T1, MUC16 antigen (CA125) (UniProt Q8WXI7 1-14451); experiment: SPR; 310 K (37 C), pH 7.2; SPR, pH 7.2, 25 C (also 37 and 42 C); 1X PBS with 1 mM MgCl2 given as flow buffer for aptamer immobilization; surface blocked with 0.1% BSA
MUC16 antigen (CA125) [2] = target: T1, MUC16 antigen (CA125); experiment: SPR; 315 K (42 C), pH 7.2; SPR, pH 7.2, 25 C (also 37 and 42 C); 1X PBS with 1 mM MgCl2 given as flow buffer for aptamer immobilization; surface blocked with 0.1% BSA
MUC16 antigen (CA125) [3] = target: T1, MUC16 antigen (CA125); experiment: SPR; 25 C, pH 7.2; kon 2.55e4 M-1 s-1, koff 1.01e-3 s-1; SPR, pH 7.2, 25 C (also 37 and 42 C); 1X PBS with 1 mM MgCl2 given as flow buffer for aptamer immobilization; surface blocked with 0.1% BSA

B1: anti-MUC16 aptamer (ssDNA)
DNA: CTCACTATAGGGAGACAAGAATAAACGCTCAA
modifications: 3'-C6 amine
Kd (MUC16 antigen (CA125) [1]): 101 nM
Kd (MUC16 antigen (CA125) [2]): 1340 nM
Kd (MUC16 antigen (CA125) [3]): 39 nM
